# In US20190262327A1, “COMBINATION OF A BACE INHIBITOR AND AN ANTIBODY OR ANTIGEN-BINDING FRAGMENT FOR THE TREATMENT OF A DISORDER ASSOCIATED WITH THE ACCUMULATION OF AMYLOID BETA” (ASTRAZENECA AB, priority 2016, published 2019):
# Entries after “also recorded” stand apart in the source; their conditions may differ.
# B1: Abet0380-GL IgG1-TM: germlined Abet0380; VH SEQ ID NO: 524, VL SEQ ID NO: 533; human IgG1 triple mutant format (antibody, listed as Homo sapiens, V domains shown)
# VH: EVQLLESGGGLVQPGGSLRLSCAASMGNFNYQTMWWVRQAPGKGLEWVSVIGKTNENIAYADSVKGRFTISRDNSKNTLYLQMNSLRAEDTAVYYCAREWMDHSRPYYYYGMDVWGQGTLVTVSS
# VL: SYELTQPPSVSVSPGQTASITCSGHNLEDKFASWYQQKPGQSPVLVIYRDDKRPSGIPERFSASNSGHTATLTISGTQAMDEADYYCSSQDTVTRVFGGGTKLTVL
# modifications: human IgG1 triple mutant constant region; /note=“Abet0380-GL”
# notes: germlined Abet0380; human IgG1 triple mutant format
# Tests used:
# [1] = molecular target: T1, Amyloid beta 1-42 peptide (Rattus norvegicus, UniProt P08592); assay: Free Amyloid beta 1-42 peptide in rat CSF (immunoprecipitation + ELISA); assay type: in vivo; conditions: for reduction of free Amyloid beta 1-42 peptide in CSF vs vehicle control: rats, 168 h after second dose
# T1 construct: Measurement of free Amyloid beta 1-42 peptide in rat CSF; from tissue; host or cells: CSF and brain homogenate of Sprague-Dawley rats
# T1 sequence (P08592 672-713 limits assumed): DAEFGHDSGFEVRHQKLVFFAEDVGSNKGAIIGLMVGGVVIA
# Method: Eight-week old male albino Harlan Sprague-Dawley rats (n=8-12) received a single dose of Abet0380-GL IgG1-TM antibody by intravenous injection with a dosing vehicle of 25 mM Histidine, 7% Sucrose, 0.02% p80 surfactant, pH 6.0 at 5 ml/kg. Dosing solutions were made just before dosing. Animals were anaesthetized at the time indicated and cerebrospinal fluid (CSF) was aspirated from the cistema magna. CSF samples were centrifuged for 10 minutes at approximately 3000× g at 4° C. within 20 minutes of sampling to remove cells or debris. Samples were then frozen on dry ice and stored at −70° C. for subsequent analysis.
# Measurement of free Amyloid beta 1-42 peptide in rat CSF was conducted using immunoprecipitation to remove Abet0380-GL bound Amyloid beta 1-42 peptide, followed by analysis by a commercial ELISA kit obtained from Invitrogen. Briefly, a solution of protein A beads (Dynabeads® Protein A; Invitrogen, UK; cat: 100-02D) was added to a 96 well non-skirted plate (polypropylene 0.2 ml; VWR International, UK; cat: 10732-4828) and washed twice with TBST (50 mM TBS; Sigma, UK; cat: T6664 plus 0.1% Tween20) using a magnet (DynaMag™ 96 side; Invitrogen, UK; cat: 123.31 D) to separate the beads from the solution. Thawed rat CSF samples (40 μl) were added to each well and incubated at […] with tilt rotation for 1 hour. The beads were then pelleted using the magnet and 30 μl of immunoprecipitated CSF samples were transferred to a 96 well plate from the ELISA kit (mouse Amyloid beta (1-42) colorimetric ELISA kit; Invitrogen, UK; cat: KMB3441) with 70 μl of the Standard Diluent Buffer already added (supplemented with protease inhibitor; Roche, UK; cat: 11836153001). Calibration standard samples were added to the plate in duplicate and the plate was incubated for 2 hours at room temperature with shaking. The plate was washed 4 times with 400 µl of wash buffer, 100 μl of the detection antibody solution was added to each well and the plate was incubated for 1 hour at room temperature with shaking. Again, the plate was washed 4 times with 400 μl of wash buffer, 100 μl of the secondary antibody working solution was added to each well and the plate was incubated for 30 minutes at room temperature with shaking. Finally, the plate was washed 4 times with 400 μl of wash buffer, 100 μl of stabilized Chromogen was added to each well and the plate was incubated for 30 minutes at room temperature in the dark. To stop the reaction, 100 μl of Stop Solution was added to each well and the plate was read within 2 hours at an absorbance of 450 nm. Single CSF samples were analyzed and data analysis was performed using Prism 4 (GraphPad, USA) with one-way ANOVA on log transformed data without adjustment for multiple comparisons.
# To further investigate the effect of the Abet0380-GL IgG1-TM antibody in vivo, rats were administered weekly doses of 0.25, 0.5, 1, 5 or 10 mg/kg over 14 days. Animals were euthanized 168 hours after the second dose to measure levels of free Amyloid beta 1-42 peptide in CSF as well as total Amyloid beta 1-42 or 1-40 peptides in brain tissue.
# The ability of antibody Abet0144-GL to sequester amyloid beta 1-42 was investigated in a PK-PD study in normal rats. Rats were intravenously administered Abet0144-GL (10 or 40 mg/kg) or vehicle weekly for 2 weeks (on days 0 and 7), and sacrificed a week after the 2nd dose. […] Free and total amyloid beta 1-42 levels were measured using assays described above.
# Amyloid plaques = assay: In vitro immunohistochemistry on human Alzheimer's Disease brain sections
# Text: Briefly, the lead antibodies were screened on human Alzheimer's Disease brain sections and Tg2576 mouse brain sections to identify anti-Amyloid beta 1-42 antibodies that bound to Amyloid plaques in vitro.
# In these experiments, human brain tissue was isolated from the frontal cortex of two individuals with severe Alzheimer's Disease (ApoE genotype 3/3, Braak stage 6 and ApoE genotype 4/3, Braak stage 5). As a control, equivalent tissue was isolated from one non-dementia individual (ApoE genotype 3/3, Braak stage 1). Mouse brain tissue was isolated from Tg2576 mice at an age of 15 months (2 mice) and 22 months (2 mice). Antibodies were tested at concentrations of 2, 5, 10 and 20 ug ml^−1.
molecule,measurement,setting,value
B1,effect on free Amyloid beta 1-42 in CSF,"[1]; Sprague-Dawley rats, 0.25-10 mg/kg weekly over 14 days",dose-dependent decrease; also recorded: dose-dependent reduction
same,reduction of free Amyloid beta 1-42 peptide in CSF vs vehicle control,"[1]; 0.25 mg/kg weekly over 14 days, not statistically significant",14%
same,reduction of free Amyloid beta 1-42 peptide in CSF vs vehicle control,[1]; 0.5 mg/kg weekly over 14 days,47%
same,reduction of free Amyloid beta 1-42 peptide in CSF vs vehicle control,[1]; 1 mg/kg weekly over 14 days,61%
same,plaque recognition score,"Amyloid plaques; human AD brain section, ApoE genotype 3/3, Braak stage 6, 10 μg/ml",3
same,core plaques (CP) staining score,Amyloid plaques; human AD brain sections,3
same,staining of diffuse plaques (DP) and cerebral amyloid angiopathy (CAA) plaques,"Amyloid plaques; relative to core plaques, Tg2576 and human AD brain sections",to a lesser extent
